The results in this text go back to patent US20210341448A1, “SCREENING METHOD FOR THERAPEUTIC DRUG OR PROPHYLACTIC DRUG FOR TAUOPATHY AND DIAGNOSTIC METHOD FOR TAUOPATHY” (National Center for Geriatrics and Gerontology, priority 2018, published 2021).

In assay [1] the target is T1, NMDAR (Mus musculus, UniProt P35436+P35438+Q01097).
T1 construct: from tissue
Put plainly: Coimmunoprecipitation of tau and NMDAR with anti-tau antibody (TauC). Particulars: tau knockout brain slice exposed to tau oligomer sample, IP: TauC, western blot anti-NR1. The class given is binding. As to the method: Whether or not the tau oligomers directly bind and interact with NMDARs was tested by the coimmunoprecipitation. The tau-knockout-brain slice specimens exposed to the tau oligomer sample prepared by the procedure of the above (2-1) and (2-2) was homogenized in 50-fold volume of the lysis buffer (4 mM of HEPES, 2 mM of EGTA, 0.32 M of sucrose, 1% Protease Inhibitor Cocktail, 1% Phosphatase Inhibitor Cocktail (Nacalai Tesque Inc., #07575-51)) and was centrifuged at 4° C., 12,000×g for 15 minutes to thereby collect pellets. The obtained pellets were dissolved in a 0.1% Triton X-100/TBS solution (25 mM of Tris-HCl, 150 mM of NaCl, 1 mM of EDTA, 1% NP-40, 5% glycerol, 0.1% Triton X-100, pH 7.4) and the resultant was used as a membrane protein solution. Coimmunoprecipitation on the obtained membrane protein solution was carried out by using an anti-tau antibody (TauC) (Dako, #A0024) (1:2000 dilution) and Pierce Direct Magnetic IP/Co-IP Kit (Thermo Fisher Scientific, #88828), in accordance with the recommended protocol by the kit. The collected coimmunoprecipitation samples were electrophoresed and then NMDAR was detected by the western blot. The antibody used was an anti-NR1 subunit antibody (Merck Millipore, #MAN363) (1:2000 dilution).
Background: Immunoblotting shows a protein as a band on a membrane.

The target in assay [2] is T1, NMDAR. Put plainly: Pull-down assay of HT-tau oligomer with membrane protein of tau knockout mouse brain. The class given is binding. To be noted: HT-tau oligomers immobilized on HaloTag beads, western blot anti-NR1. As to the method:
Whether or not the tau oligomer and NMDAR directly bind and interact was confirmed by a pull-down assay using the HT-tau oligomer. Magne™ HaloTag beads (Promega Corporation, #G728A) (50 mg) were added to the HT-tau oligomer sample (100 μl) prepared in the above (1-4), and a binding reaction was carried out at 4° C. for 12 hours to thereby immobilize the HT-tau oligomers on the beads. Additionally, brain slice specimens were prepared from tau knockout mice (B6.129X1-Mapt^tm1Hnd/J, Jackson Laboratory) by the same procedure as in the above (2-1) and were homogenized in 50-fold volume of the lysis buffer (4 mM of HEPES, 2 mM of EGTA, 0.32 M of sucrose, 1% Protease Inhibitor Cocktail, 1% Phosphatase Inhibitor Cocktail (Nacalai Tesque Inc., #07575-51)), and the lysate was centrifuged at 4° C., 12,000×g for 15 minutes to thereby collect pellets. The obtained pellets were dissolved in a 2% cholic acid or 1% deoxycholate/TBS solution (25 mM of Tris-HCl, 150 mM of NaCl, pH 7.4) and the resultant was used as a membrane protein solution. […] The obtained tau oligomer-membrane protein complexes were applied to SDS-PAGE electrophoresis, and NMDARs were detected by the western blot. […]

T1 sequence (P35436 23-1464, other chains not shown): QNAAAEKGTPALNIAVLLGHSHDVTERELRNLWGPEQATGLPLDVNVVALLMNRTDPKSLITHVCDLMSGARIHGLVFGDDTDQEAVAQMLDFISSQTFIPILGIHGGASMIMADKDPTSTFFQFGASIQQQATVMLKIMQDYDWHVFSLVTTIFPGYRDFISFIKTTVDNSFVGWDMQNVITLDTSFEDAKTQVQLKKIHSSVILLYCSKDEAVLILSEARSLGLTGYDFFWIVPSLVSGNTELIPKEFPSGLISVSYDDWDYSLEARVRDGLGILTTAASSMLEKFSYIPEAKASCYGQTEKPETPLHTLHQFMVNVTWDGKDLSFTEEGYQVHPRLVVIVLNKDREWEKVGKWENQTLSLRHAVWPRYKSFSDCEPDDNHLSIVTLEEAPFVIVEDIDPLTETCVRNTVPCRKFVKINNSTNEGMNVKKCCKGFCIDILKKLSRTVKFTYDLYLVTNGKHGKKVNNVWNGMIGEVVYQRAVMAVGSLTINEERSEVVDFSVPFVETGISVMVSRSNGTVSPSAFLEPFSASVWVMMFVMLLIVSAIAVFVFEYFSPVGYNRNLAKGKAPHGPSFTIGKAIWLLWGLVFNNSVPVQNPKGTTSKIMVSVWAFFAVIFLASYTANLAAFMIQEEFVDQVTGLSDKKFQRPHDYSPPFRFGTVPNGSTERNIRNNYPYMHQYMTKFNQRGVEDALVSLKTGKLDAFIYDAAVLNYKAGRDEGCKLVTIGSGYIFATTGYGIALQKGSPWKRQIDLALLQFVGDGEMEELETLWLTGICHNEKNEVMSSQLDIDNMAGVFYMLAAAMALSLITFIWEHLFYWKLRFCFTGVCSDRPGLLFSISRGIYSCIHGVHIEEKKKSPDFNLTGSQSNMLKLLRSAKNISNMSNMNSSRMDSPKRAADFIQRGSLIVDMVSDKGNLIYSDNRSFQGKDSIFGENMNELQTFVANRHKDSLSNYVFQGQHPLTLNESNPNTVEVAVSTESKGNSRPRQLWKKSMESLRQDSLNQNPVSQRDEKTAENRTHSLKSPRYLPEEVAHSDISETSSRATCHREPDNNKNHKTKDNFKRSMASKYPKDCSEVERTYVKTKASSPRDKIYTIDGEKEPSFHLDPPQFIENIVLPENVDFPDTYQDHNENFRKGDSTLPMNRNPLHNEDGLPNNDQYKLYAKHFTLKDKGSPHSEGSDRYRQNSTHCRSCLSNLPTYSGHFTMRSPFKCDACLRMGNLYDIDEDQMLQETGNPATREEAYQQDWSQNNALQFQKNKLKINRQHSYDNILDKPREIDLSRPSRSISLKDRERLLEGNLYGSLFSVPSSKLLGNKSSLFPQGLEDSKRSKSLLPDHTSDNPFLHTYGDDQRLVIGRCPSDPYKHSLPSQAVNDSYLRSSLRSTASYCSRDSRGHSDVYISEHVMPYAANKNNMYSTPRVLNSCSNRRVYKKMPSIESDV
T1 sequence (Q01097 27-1482, other chains not shown): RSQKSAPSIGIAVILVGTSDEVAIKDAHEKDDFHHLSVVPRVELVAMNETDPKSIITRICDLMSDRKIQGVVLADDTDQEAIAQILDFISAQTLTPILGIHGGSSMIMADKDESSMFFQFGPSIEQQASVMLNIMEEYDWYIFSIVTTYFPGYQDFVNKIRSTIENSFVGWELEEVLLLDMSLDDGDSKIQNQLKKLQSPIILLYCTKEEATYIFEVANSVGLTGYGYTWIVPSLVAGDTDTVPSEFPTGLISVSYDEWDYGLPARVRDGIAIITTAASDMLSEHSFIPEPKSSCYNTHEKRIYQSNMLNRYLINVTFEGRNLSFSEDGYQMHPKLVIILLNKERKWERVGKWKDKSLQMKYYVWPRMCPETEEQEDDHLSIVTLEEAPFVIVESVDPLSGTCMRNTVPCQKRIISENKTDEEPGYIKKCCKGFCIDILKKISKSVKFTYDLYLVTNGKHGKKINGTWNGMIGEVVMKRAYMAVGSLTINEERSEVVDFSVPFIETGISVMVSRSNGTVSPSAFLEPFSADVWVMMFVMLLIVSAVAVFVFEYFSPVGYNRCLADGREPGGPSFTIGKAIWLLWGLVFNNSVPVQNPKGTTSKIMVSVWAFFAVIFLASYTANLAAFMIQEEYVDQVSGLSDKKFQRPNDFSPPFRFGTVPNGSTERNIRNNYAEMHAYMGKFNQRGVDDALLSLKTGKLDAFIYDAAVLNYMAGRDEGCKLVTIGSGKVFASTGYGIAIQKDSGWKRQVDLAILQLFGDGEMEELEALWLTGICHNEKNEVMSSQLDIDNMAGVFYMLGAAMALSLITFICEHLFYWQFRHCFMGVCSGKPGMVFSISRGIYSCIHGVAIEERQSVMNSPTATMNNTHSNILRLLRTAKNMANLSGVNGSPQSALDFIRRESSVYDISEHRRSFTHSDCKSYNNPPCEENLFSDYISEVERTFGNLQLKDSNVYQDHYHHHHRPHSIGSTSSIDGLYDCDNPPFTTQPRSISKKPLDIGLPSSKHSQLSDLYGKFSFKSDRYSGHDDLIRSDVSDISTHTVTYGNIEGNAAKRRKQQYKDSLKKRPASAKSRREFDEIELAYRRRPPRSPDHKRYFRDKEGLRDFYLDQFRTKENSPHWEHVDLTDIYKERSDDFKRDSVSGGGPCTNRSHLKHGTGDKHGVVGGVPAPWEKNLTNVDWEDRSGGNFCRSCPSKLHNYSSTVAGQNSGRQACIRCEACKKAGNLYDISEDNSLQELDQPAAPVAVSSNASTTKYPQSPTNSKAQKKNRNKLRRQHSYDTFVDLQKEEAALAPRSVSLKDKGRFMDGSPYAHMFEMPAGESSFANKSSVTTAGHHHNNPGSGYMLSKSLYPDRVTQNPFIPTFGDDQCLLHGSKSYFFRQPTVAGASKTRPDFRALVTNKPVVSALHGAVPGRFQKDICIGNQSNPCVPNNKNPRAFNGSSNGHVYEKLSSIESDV

Take “tau oligomer: polymer of human tau 2N4R monomers, polymerized with mouse brain extract and ATP, collected as pellets”: in assay [1], the “coimmunoprecipitation of NR1 subunit with tau” value is “clear band of the NR1 subunits was detected”. The “binding of NMDAR in pull-down assay” value in assay [2] was “directly bound”.
